# Source: patent US20110263459, “DIRECT SELECTION OF STRUCTURALLY DEFINED APTAMERS” (published 2011)
# B1: G control (SL3-GUG) (ssRNA)
# RNA: GGACUAGCGGUGGCUAGUCC
# B2: A control (SL3-AUA) (ssRNA)
# RNA: GGACUAGCGAUAGCUAGUCC
# B3: control 33 (TBA) (structured_DNA)
# DNA: GGTTGGTGTGGTTGG
# Tests used:
# [1] = biological target: HIV-1 nucleocapsid protein NCp7 (HIV-1) (UniProt P03349); settings: Cy3-NCp7 microarray; 3.5x background (AUA)
# [2] = biological target: T1, HIV-1 nucleocapsid protein NCp7 (HIV-1, UniProt P03349 P03349:380-434); assay: Trp37 fluorescence quenching, PBS pH 7.4, 0.1% Tween-20, 5 mM MgCl2, 25 C; 1:1; settings: tags: unlabelled for Trp titration; Cy3/Dylight-labelled for chips; made in house, >95% pure; hairpin
# [3] = biological target: T1, HIV-1 nucleocapsid protein NCp7; assay: Trp37 fluorescence quenching, PBS, 5 mM MgCl2, 25 C; negative on chip; settings: tags: unlabelled for Trp titration; Cy3/Dylight-labelled for chips; made in house, >95% pure; hairpin
# [4] = biological target: T1, HIV-1 nucleocapsid protein NCp7; assay: multiple NCp7 bound per TBA in Trp37 titration; positive on chip; settings: tags: unlabelled for Trp titration; Cy3/Dylight-labelled for chips; made in house, >95% pure; G4
molecule,measurement,setting,value
TGTNNN [N6-56(64) pool],binding signal (fold of GUG control),[1],1.5
B1,Kd,[2],10 nM
B2,Kd,[3],200 nM
B3,binding result,[4],binds
